Assays:
Experiment in all cases: cell-based or functional assay
[1] = molecular target: T1, smt3-mATGL288-StrepII I212A (mouse, UniProt Q8BJ56 1-288, I212A)
T1 sequence (looked up): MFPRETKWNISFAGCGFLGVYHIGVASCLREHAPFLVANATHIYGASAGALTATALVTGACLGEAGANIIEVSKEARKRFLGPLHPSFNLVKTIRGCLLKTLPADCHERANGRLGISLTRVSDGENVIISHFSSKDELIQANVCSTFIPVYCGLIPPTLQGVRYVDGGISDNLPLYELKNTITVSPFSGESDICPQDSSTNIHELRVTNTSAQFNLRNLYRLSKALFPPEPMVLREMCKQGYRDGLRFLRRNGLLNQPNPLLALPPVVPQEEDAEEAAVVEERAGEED

[2] = molecular target: T2, smt3-mATGL288-StrepII N215A (mouse, UniProt Q8BJ56 1-288, N215A)
T2 sequence (looked up): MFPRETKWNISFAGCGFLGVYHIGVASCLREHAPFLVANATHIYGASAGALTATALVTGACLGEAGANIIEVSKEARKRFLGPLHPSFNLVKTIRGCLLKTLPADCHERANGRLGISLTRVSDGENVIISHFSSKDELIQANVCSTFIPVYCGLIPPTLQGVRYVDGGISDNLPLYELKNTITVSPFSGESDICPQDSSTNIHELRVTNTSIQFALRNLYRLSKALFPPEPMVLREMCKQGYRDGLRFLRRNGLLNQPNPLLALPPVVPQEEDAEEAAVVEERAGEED

[3] = molecular target: T3, smt3-mATGL288-StrepII I212S (mouse, UniProt Q8BJ56 1-288, I212S)
T3 sequence (looked up): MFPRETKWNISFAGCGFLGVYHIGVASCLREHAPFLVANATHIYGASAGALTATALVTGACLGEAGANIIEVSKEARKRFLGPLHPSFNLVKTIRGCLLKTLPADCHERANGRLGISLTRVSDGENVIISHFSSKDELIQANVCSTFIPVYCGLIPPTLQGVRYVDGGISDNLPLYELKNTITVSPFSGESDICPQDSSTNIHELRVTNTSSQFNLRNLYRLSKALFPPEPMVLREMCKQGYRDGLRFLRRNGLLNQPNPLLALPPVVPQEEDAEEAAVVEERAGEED

[4] = molecular target: T4, smt3-mATGL288-StrepII N209A (mouse, UniProt Q8BJ56 1-288, N209A)
T4 sequence (looked up): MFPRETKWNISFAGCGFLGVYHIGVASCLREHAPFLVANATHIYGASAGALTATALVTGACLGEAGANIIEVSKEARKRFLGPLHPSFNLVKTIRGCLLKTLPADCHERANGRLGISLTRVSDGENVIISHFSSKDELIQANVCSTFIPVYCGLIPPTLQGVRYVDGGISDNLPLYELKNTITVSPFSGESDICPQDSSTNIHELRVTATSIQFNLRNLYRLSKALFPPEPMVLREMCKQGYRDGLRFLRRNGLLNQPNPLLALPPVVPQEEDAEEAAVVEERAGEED

[5] = molecular target: T5, smt3-mATGL288-StrepII (mouse adipose triglyceride lipase truncated after D288), wild type (mouse, UniProt Q8BJ56 1-288)
T5 sequence (looked up): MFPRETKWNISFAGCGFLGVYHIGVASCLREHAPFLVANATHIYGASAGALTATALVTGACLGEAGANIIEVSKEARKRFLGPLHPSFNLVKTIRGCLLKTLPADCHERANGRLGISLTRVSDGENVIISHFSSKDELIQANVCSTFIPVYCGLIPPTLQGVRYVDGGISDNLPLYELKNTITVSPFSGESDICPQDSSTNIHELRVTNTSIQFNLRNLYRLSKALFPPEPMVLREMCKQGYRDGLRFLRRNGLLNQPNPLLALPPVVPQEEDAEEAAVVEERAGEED

- EC50 of mCGI-58 for co-activation of the TG hydrolase activity of mATGL288 I212A (25 ug bacterial lysate, purified mCGI-58 up to 2300 nM) [1]: ~500 nM
- EC50 of mCGI-58 for co-activation of the TG hydrolase activity of mATGL288 N215A (25 ug bacterial lysate, purified mCGI-58 up to 2300 nM) [2]: ~200 nM
- EC50 of mCGI-58 for co-activation of the TG hydrolase activity of mATGL288 I212S (25 ug bacterial lysate, purified mCGI-58 up to 2300 nM) [3]: ~200 nM
- EC50 of mCGI-58 for co-activation of the TG hydrolase activity of mATGL288 N209A (25 ug bacterial lysate, purified mCGI-58 up to 2300 nM) [4]: ~500 nM
- EC50 of mCGI-58 for co-activation of the TG hydrolase activity of mATGL288 (25 ug bacterial lysate, purified mCGI-58 up to 2300 nM) [5]: 178 nM
B1: smt3-mCGI-58-His6 (mouse comparative gene identification-58) (natural protein, UniProt Q9DBL9 1-351, looked up)
chain: MKAMAAEEEVDSADAGGGSGWLTGWLPTWCPTSTSHLKEAEEKMLKCVPCTYKKEPVRISNGNRIWTLMFSHNISSKTPLVLLHGFGGGLGLWALNFEDLSTDRPVYAFDLLGFGRSSRPRFDSDAEEVENQFVESIEEWRCALRLDKMILLGHNLGGFLAAAYSLKYPSRVSHLILVEPWGFPERPDLADQERPIPVWIRALGAALTPFNPLAGLRIAGPFGLSLVQRLRPDFKRKYSSMFEDDTVTEYIYHCNVQTPSGETAFKNMTIPYGWAKRPMLQRIGGLHPDIPVSVIFGARSCIDGNSGTSIQSLRPKSYVKTIAILGAGHYVYADQPEEFNQKVKEICHTVD

— publication doi:10.1101/2023.06.26.546551, “Unmasking Crucial Residues in Adipose Triglyceride Lipase (ATGL) for Co-Activation with Comparative Gene Identification-58 (CGI-58)” (bioRxiv, 2023)
